The series concerns the target RAD51 (UniProt Q06609 1-339). Put plainly: EMSA.

Chain of RAD51 (Q06609 whole entry): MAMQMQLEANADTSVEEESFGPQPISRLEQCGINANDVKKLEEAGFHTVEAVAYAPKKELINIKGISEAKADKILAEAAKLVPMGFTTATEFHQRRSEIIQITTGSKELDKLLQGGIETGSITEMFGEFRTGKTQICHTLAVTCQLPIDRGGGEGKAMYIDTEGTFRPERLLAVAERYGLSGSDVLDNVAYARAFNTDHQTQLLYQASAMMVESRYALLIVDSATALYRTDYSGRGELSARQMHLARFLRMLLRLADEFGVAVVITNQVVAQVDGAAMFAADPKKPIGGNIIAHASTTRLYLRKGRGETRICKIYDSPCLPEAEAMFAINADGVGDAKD

Take UUAGGGUUAGGGUUAGGGUUAGGGUUAGGGUUAGGGUUAGG (ssRNA) [41mer TERRA]: the binding signal is ~3 fold higher affinity than TelDNA (N2).
